The results in this text go back to patent US11634486B2, “Anti-SEZ6L2 antibodies and antibody drug conjugates” (Bluefin BioMedicine, Inc., priority 2016, dated 2023).

Experiment [1] deals with Cynomolgus monkey SEZ6L2. Briefly: ForteBio Octet binding kinetics, Protein A biosensors. The method, then: (§1) Affinity: The affinity of antibodies to various recombinant SEZ6L2 molecules was determined on an Octet Red (Pall, ForteBio) instrument. After loading reagents into a 96-well plate, the Octet Red with Protein A-conjugated biosensors was programmed as follows: 30 seconds for baseline #1; 120 seconds to immobilize the antibody; 30 seconds for baseline #2; 300 seconds for association of antibody to recombinant SEZ6L2; and 300-600 seconds for dissociation of recombinant SEZ6L2 from the antibody.
(§2) Table 10, below, indicates the KD, Kon, and Koff values for human antibodies 1A1, 3A1, 3A2, and 3A3 and humanized antibodies 16H8, 3E2, 20C4, and 2E4, for both human SEZ6L2 and cynomolgus monkey SEZL2, as determined by ForteBio Data Analysis 9.0 Kinetics software. Briefly, within the ForteBio Octet red96 instrument, Protein A biosensors were incubated with fixed amounts of the test antibody. The biosensors with bound antibody were then rinsed and dipped into wells containing varying concentrations of the recombinant target protein. Approximately 5 different concentrations were independently tested. After a period of time, the biosensors were dipped into buffer to allow the target protein to dissociate from the antibody. The ForteBio software package generated a best-fit curve for each of the profiles of the varying concentrations of target protein. The calculated affinity measurements were analyzed, and the rate constant values from the middle of the linear range were chosen.
Background: BLI is a label-free optical method that tracks binding on a fibre tip over time.

For experiment [2], the target named is T1, Human SEZ6L2 (Homo sapiens, UniProt Q6UXD5).
T1 construct: a protein composed of the extracellular portion of the human SEZ6L2 protein; His6 (C); made in house; host or cells: CHO (ExpiCHO)
T1 sequence (Q6UXD5 28-844 limits assumed): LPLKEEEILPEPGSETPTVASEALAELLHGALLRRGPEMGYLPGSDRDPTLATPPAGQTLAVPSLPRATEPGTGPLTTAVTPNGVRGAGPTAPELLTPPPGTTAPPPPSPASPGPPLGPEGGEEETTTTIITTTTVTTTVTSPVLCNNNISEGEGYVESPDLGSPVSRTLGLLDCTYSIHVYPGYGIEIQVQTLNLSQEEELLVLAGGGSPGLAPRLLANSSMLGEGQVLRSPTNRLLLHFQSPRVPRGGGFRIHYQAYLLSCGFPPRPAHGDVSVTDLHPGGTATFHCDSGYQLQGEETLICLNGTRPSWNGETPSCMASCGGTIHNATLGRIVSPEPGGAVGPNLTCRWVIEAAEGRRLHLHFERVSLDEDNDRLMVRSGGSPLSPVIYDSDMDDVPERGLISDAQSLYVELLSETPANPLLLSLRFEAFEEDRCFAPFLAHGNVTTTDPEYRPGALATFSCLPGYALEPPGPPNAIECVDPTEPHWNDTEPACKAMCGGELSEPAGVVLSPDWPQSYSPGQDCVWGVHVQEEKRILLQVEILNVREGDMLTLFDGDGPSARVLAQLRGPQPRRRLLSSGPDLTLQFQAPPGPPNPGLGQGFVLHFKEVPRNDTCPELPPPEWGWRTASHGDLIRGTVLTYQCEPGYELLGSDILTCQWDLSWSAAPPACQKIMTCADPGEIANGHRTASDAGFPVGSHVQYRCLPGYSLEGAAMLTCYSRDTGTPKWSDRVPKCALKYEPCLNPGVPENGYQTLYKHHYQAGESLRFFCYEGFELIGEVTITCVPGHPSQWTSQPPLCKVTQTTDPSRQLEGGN
The experiment is described as above. As to the method:
as §1, §2

Experiment [3] has as its target T2, SEZ6 (293-SEZ6) (Homo sapiens, UniProt Q53EL9).
T2 construct: expressed in transfected cells; host or cells: HEK 293
T2 sequence (Q53EL9 20-994): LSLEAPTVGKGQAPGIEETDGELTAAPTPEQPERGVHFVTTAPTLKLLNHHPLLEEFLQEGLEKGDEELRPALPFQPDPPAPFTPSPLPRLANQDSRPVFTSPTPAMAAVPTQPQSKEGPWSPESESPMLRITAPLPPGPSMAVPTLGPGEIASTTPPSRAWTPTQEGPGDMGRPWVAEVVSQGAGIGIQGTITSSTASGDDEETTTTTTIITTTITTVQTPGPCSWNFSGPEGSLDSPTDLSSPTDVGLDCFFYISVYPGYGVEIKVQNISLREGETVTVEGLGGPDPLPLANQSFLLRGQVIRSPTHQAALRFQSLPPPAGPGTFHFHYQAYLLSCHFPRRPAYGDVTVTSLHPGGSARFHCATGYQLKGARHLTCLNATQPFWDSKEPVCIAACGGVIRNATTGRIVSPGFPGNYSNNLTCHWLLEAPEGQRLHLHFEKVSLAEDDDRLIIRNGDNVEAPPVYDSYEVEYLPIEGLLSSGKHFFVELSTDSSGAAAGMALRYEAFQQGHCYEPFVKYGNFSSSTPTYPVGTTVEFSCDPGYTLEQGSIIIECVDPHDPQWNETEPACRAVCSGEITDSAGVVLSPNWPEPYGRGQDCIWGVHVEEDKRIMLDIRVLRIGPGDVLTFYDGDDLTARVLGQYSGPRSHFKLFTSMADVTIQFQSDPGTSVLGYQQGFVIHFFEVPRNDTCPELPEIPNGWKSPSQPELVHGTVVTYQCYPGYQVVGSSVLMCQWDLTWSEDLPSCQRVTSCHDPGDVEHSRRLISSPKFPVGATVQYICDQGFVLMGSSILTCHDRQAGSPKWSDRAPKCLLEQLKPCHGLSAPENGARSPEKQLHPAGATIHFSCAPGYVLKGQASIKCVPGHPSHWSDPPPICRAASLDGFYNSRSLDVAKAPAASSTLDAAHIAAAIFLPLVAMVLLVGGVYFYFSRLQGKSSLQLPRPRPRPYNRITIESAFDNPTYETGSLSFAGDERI
The experiment in a line: Flow cytometry specificity on overexpressing 293 cells. Format: binding. Particulars: primary antibody 1 ug/ml, live cells on ice. The method, then: (§3) In order to assess whether SEZ6L2 antibody modulators immunospecifically associate with human SEZ6L2, and to determine whether the same modulators cross-react with SEZ6 and SEZ6L, flow cytometry was performed using a MACSquant™ as per the manufacturer's instructions. More particularly, modulators were tested for cross reactivity to cell lines that overexpress the human homologs of SEZ6 (293-SEZ6), SEZ6L (293-SEZ6L), and SEZ6L2 (293-SEZ6L2).
(§4) Briefly, staining for flow cytometry was performed in lx cold PBS with 0.5% BSA. Primary antibodies (1 ug/ml) were incubated with live cells on ice for one hour. After washing in the same buffer, cells were incubated with Alexa Fluro® 488-conjugated anti-human IgG secondary antibody @1:1000 (709-546-149, Jackson ImmunoResearch) on ice in the dark. After a 30 minute incubation, cells were washed in the same buffer and re-suspended in buffer plus propidium iodide (PI) to identify live cells. As a negative control, cells were incubated with secondary antibody alone. Acquisition of the data was performed on a MACSQuant® Flow Cytometer (Miltenyi Biotec) and analyzed with FlowJo software.
(Flow cytometry measures light scatter and fluorescence of single cells or particles in a stream.)

The target of experiment [4] is T3, SEZ6L (293-SEZ6L) (Homo sapiens, UniProt Q9BYH1).
T3 construct: expressed in transfected cells; host or cells: HEK 293
T3 sequence (Q9BYH1 29-1024): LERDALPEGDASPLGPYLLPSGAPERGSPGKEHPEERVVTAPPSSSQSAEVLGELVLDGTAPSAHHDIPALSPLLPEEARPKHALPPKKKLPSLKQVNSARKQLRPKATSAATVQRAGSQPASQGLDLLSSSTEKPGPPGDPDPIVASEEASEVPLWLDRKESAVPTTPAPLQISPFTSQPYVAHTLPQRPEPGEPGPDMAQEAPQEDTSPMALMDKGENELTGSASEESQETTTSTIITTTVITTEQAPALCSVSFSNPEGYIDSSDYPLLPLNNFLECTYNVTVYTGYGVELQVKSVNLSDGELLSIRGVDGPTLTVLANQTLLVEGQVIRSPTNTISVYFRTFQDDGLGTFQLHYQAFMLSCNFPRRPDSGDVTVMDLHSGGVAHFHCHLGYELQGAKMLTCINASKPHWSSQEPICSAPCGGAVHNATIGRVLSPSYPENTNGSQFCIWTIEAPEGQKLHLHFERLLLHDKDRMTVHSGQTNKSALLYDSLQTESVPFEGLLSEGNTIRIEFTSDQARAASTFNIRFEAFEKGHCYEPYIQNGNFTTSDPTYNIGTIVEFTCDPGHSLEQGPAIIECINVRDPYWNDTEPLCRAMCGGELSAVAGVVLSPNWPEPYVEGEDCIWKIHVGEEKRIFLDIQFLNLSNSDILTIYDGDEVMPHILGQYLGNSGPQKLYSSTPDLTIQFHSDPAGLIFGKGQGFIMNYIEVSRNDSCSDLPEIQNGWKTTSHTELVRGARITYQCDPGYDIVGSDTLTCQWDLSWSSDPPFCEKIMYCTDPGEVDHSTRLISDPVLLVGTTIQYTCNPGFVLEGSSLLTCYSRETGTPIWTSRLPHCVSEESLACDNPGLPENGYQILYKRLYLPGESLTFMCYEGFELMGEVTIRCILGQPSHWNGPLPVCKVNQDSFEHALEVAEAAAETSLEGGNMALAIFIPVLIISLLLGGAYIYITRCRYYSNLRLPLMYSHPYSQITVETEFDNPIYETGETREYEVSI
The experiment is described as above. Format: binding. Particulars: primary antibody 1 ug/ml, live cells on ice. As to the method: as §3, §4

Experiment [5] addresses T4, SEZ6L2 (293-SEZ6L2) (Homo sapiens, UniProt Q6UXD5).
T4 construct: cDNA encoding the complete mature human SEZ6L2 protein containing a C-terminal FLAG tag was purchased from Origene; FLAG (C); host or cells: HEK 293
The experiment is described as above. Format: binding. As to conditions: primary antibody 1 ug/ml, live cells on ice. As to the method:
as §3, §4

T4 sequence (Q6UXD5 28-910): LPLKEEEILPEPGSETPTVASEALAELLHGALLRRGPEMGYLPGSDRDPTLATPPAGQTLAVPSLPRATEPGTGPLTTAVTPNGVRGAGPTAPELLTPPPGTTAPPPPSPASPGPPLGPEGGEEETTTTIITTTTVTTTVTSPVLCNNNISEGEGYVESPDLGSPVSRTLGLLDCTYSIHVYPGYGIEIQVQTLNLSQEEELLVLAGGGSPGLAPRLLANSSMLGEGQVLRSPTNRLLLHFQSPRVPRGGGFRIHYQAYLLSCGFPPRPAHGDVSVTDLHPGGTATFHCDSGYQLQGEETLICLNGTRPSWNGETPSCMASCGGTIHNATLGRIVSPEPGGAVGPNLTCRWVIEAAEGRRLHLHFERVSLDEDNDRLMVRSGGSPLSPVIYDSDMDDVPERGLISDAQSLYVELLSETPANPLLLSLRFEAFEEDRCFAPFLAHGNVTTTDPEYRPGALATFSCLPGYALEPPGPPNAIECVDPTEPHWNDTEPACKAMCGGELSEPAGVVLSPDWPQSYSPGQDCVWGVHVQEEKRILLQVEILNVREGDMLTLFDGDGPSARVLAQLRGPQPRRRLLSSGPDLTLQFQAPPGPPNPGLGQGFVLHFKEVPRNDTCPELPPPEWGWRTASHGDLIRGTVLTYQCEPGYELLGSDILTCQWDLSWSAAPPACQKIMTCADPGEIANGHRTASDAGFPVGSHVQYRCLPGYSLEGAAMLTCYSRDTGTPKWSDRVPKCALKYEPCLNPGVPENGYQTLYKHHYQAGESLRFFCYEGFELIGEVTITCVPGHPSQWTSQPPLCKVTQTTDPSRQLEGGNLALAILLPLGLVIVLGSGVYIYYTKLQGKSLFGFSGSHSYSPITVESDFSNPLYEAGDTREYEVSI

B1: 20C4: humanized anti-SEZ6L2 antibody, VH SEQ ID NO: 17, VL SEQ ID NO: 21 (antibody, V domains shown)
VH: EVQLVESGGGLVQPGGSLRLSCAASGFTFTDYYMSWVRQAPGKGLEWVALIRNKANGYTTEYSASVKGRFTISRDNSKNSLYLQMNSLRAEDTAVYYCARNGLYGLFAYWGQGTLVTVSSA
VL: DIVMTQTPLSIPVTPGEPASISCRSSTSLLESSGKHRLYWYLQKPGQSPQLLIYYMSNLASGVPDRFSGSGSGTDFTLKISRVEAEDFGVYYCMQSLEYPLTFGAGTKVEIKR
B1: in experiment [1], the “K(off)” value worked out at 3.18E−04 and the “K(on)” value was 1.05E+05. In experiment [2], the “K(off)” value was 2.20E−04 and the “K(on)” value was 6.35E+04. The “binding to 293-SEZ6 cells by flow cytometry” value (shortened to “binding to 293-SEZ6 cells”) in experiment [3] is “no detectable binding”. In addition, the “binding to 293-SEZ6L cells by flow cytometry” value (“binding to 293-SEZ6L cells” for short) in experiment [4] is given as “no detectable binding”. Also, the “binding to 293-SEZ6L2 cells by flow cytometry” value (“binding to 293-SEZ6L2 cells” for short) in experiment [5] was “recognize a cell line that overexpresses SEZ6L2”.

B2: 2E4: humanized anti-SEZ6L2 antibody, VH SEQ ID NO: 25, VL SEQ ID NO: 29 (antibody, V domains shown)
VH: EVKLVESGGVLVKPGGSLRLSCAASGFTFSKYAMSWVRQAPGKGLEWVSTISSGGSYTYYPDSVKGRFTISRDNARNSLYLQMNSLRAEDTAIYYCTREGGYDEGYAMDYWGQGTTVTVSSA
VL: DIVMTQSPDSLAVSLGERATINCRSSQSLVHSYGNTYLHWYQQKPGQPPKLLIYKVSNRFSGVPDRFSGSGSGTDFTLTISSLQAEDVAVYFCSQSTHFRTFGGGTKVEIKR
Regarding B2, the “K(off)” value in experiment [1] is reported as 1.94E−03; in experiment [2], 1.33E−03. The “K(on)” value was 1.63E+05 in experiment [1] and 2.05E+05 in experiment [2]. Also, the “binding to 293-SEZ6 cells” value in experiment [3] is reported as “no detectable binding”. Besides, the “binding to 293-SEZ6L cells” value in experiment [4] is “no detectable binding”. For the same molecule, in experiment [5], the “binding to 293-SEZ6L2 cells” value is given as “recognize a cell line that overexpresses SEZ6L2”.

B3: 3B6: human anti-SEZ6L2 antibody, VH SEQ ID NO: 109, VL SEQ ID NO: 113 (antibody, V domains shown)
VH: QVQLVQSGAEVKKPGASVKVSCKASGYTFTAYYMHWVRQAPGQGLEWMGWINPNSGGTNYAQKFQGRVTMTRDTSIDTAYLDLSRLRSDDTAVYYCAKDSGYDWYFDIWGRGTLVTVSSA
VL: EIVLTQSPATLSLSPGERATLSCRASQNISSYLAWYQQKPGQAPRLLIYDASNRATGIPARFSGSGSGTDFTLTISSLEPEDFAVFYCQQHSNWPPLTFGGGTKVEIKR
Turning to B3, the “binding to 293-SEZ6 cells” value in experiment [3] is given as “no detectable binding”. Besides, the “binding to 293-SEZ6L cells” value in experiment [4] is “no detectable binding”. In experiment [5], the “binding to 293-SEZ6L2 cells” value is “recognize a cell line that overexpresses SEZ6L2”.

B4: 16H8: humanized anti-SEZ6L2 antibody, VH SEQ ID NO: 1, VL SEQ ID NO: 5 (antibody, V domains shown)
VH: QIQLVQPGAEVKKPGASVKVSCKASGYTFTSYWMYWVRQAPGQGLEWMGAIYPRDSDTSYNQKFKGRVTMTRVTSTSTVYMELSSLRSEDTAVYYCTRGDYYYGSSYYAMDYWGQGTTVTVSSA
VL: DIVMTQSPLSLPVTPGEPASISCSSSKSLLHSNGITYLYWYLQKPGQSPQLLIYRMSNLASGVPDRFSGSGSGTDFTLKISRVEAEDVGVYYCAQMLERPYTFGQGTKVEIKR
As to B4, in experiment [2], the “K(off)” value amounted to 2.20E−04 and the “K(on)” value was 6.03E+05. The “binding to 293-SEZ6 cells” value in experiment [3] is listed as “no detectable binding”. The “binding to 293-SEZ6L cells” value in experiment [4] is “no detectable binding”. Further, in experiment [5], the “binding to 293-SEZ6L2 cells” value is on record as “recognize a cell line that overexpresses SEZ6L2”.

B5: 3E2: humanized anti-SEZ6L2 antibody, VH SEQ ID NO: 9, VL SEQ ID NO: 13 (antibody, V domains shown)
VH: EVQLVESGGGLVQPGGSLKLSCAASGFSFNTITMNWVRQASGKGLEWVGRIRSKSNNYATYYADAVKDRFTISRDDSKNTAYLQMNSLKTEDTAVYYCVRGIFSGYVYAMDYWGQGTLVTVSSA
VL: DVVMTQSPLSLPVTVGQPASISCRSSQSIVHSNGNTYLEWFQQRPGQSPRVLIYKVSNRFSGVPDRFSGSGSGTDFTLKISRVEAEDVGVYYCFQGSHVPYTFGGGTKLEIKR
As to B5, the figures for the “K(off)” value in experiment [1] and in experiment [2] were 2.95E−03 and 3.19E−03, respectively. Besides, the figures for the “K(on)” value in experiment [1] and in experiment [2] were 1.37E+06 and 1.33E+06, respectively. The “binding to 293-SEZ6 cells” value in experiment [3] is “no detectable binding”. The “binding to 293-SEZ6L cells” value in experiment [4] was “no detectable binding”. The “binding to 293-SEZ6L2 cells” value in experiment [5] is “recognize a cell line that overexpresses SEZ6L2”.
